Laboratory results published in publication PMC6350781 (Cell reports, 2018).

T1: GST-Fkbp5-W90L (UniProt Q64378 1-456, W90L)
T1 sequence (looked up): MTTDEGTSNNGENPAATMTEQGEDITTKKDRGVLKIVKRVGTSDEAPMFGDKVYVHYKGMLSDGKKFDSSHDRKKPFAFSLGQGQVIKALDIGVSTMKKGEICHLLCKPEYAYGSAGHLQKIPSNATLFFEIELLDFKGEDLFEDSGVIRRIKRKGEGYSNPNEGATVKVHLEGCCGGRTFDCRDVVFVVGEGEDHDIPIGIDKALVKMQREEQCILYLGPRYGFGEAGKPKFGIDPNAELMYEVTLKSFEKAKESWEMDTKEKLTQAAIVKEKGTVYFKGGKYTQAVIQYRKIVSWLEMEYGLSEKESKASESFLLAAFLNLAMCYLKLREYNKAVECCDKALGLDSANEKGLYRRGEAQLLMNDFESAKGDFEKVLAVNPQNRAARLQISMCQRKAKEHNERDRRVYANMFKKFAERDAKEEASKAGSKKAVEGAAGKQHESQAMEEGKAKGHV

T2: GST-Fkbp5-Δ2 (UniProt Q64378 1-456, deletion of amino acids 165-251)
T2 sequence (looked up): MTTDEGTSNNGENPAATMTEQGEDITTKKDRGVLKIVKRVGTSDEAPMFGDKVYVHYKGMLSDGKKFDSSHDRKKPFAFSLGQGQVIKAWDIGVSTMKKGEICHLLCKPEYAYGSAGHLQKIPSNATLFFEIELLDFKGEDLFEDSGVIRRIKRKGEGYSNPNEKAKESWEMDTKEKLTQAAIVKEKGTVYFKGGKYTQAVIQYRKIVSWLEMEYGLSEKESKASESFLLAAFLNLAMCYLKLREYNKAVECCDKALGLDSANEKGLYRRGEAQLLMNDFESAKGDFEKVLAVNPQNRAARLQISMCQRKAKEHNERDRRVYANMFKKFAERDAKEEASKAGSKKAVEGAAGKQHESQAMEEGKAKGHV

T3: GST-Fkbp5 (UniProt Q64378 1-456)
T3 sequence (looked up): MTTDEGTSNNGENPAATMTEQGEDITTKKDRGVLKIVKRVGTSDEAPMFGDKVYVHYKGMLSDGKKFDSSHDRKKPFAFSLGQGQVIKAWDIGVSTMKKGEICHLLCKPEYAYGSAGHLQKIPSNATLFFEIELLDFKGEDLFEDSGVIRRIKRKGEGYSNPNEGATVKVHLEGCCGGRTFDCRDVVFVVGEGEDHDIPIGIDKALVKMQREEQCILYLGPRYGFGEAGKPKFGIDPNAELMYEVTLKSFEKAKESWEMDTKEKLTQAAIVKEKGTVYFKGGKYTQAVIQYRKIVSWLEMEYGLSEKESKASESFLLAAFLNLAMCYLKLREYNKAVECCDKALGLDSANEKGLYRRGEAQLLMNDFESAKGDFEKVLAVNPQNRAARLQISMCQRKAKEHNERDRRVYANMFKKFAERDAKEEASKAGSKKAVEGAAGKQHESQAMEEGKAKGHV

T4: GST-Fkbp5-F130Y (UniProt Q64378 1-456, F130Y)
T4 sequence (looked up): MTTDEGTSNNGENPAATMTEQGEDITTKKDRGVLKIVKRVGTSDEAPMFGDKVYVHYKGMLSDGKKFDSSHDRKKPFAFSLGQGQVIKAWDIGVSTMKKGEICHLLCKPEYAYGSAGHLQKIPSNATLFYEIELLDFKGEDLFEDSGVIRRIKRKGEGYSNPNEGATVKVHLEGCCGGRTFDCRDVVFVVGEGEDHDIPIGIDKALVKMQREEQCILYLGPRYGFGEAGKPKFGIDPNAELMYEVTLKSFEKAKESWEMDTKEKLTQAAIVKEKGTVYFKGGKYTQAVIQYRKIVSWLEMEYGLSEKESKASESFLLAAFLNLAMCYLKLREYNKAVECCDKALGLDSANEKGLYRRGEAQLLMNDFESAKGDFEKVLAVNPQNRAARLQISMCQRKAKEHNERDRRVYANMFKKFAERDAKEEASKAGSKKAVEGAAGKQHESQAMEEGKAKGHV

T5: GST-Fkbp5-Δ1 (UniProt Q64378 1-456, deletion of amino acids 50-138)
T5 sequence (looked up): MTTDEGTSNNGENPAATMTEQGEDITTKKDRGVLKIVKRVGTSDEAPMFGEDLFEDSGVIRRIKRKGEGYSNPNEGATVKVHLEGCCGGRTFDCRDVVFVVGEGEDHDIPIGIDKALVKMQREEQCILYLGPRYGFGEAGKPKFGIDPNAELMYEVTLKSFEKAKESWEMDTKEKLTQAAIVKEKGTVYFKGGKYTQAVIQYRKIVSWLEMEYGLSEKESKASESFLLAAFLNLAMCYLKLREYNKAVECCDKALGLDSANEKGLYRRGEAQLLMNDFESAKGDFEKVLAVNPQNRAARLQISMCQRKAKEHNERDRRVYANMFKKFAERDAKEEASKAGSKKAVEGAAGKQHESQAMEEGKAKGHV


Experiments:
Experiment in all cases: pull-down
[1] = target: T1, GST-Fkbp5-W90L
[2] = target: T2, GST-Fkbp5-Δ2
[3] = target: T3, GST-Fkbp5
[4] = target: T4, GST-Fkbp5-F130Y
[5] = target: T5, GST-Fkbp5-Δ1

Row | Binder | binding result [1] | binding result [2] | binding result [3] | binding result [4] | binding result [5]
1 | Cdk4-6×His (natural protein, UniProt P30285 1-303, looked up) MAATRYEPVAEIGVGAYGTVYKARDPHSGHFVALKSVRVPNGGAAGGGLPVSTVREVALLRRLEAFEHPNVVRLMDVCATSRTDRDIKVTLVFEHIDQDLRTYLDKAPPPGLPVETIKDLMRQFLSGLDFLHANCIVHRDLKPENILVTSNGTVKLADFGLARIYSYQMALTPVVVTLWYRAPEVLLQSTYATPVDMWSVGCIFAEMFRRKPLFCGNSEADQLGKIFDLIGLPPEDDWPREVSLPRGAFAPRGPRPVQSVVPEMEESGAQLLLEMLTFNPHKRISAFRALQHSYLHKEESDAE | binds | binds | binds | binds | binds
2 | Cdk4-Δ1-6×His (domain or fragment, UniProt P30285 101-303, looked up) RTYLDKAPPPGLPVETIKDLMRQFLSGLDFLHANCIVHRDLKPENILVTSNGTVKLADFGLARIYSYQMALTPVVVTLWYRAPEVLLQSTYATPVDMWSVGCIFAEMFRRKPLFCGNSEADQLGKIFDLIGLPPEDDWPREVSLPRGAFAPRGPRPVQSVVPEMEESGAQLLLEMLTFNPHKRISAFRALQHSYLHKEESDAE | – | – | binds | – | –

More lines, now with the values ahead:

Row | binding result [1] | binding result [2] | binding result [3] | binding result [4] | binding result [5] | Binder
3 | – | – | binds | – | – | Cdk4-Δ3-6×His (domain or fragment, UniProt P30285 1-200, looked up) MAATRYEPVAEIGVGAYGTVYKARDPHSGHFVALKSVRVPNGGAAGGGLPVSTVREVALLRRLEAFEHPNVVRLMDVCATSRTDRDIKVTLVFEHIDQDLRTYLDKAPPPGLPVETIKDLMRQFLSGLDFLHANCIVHRDLKPENILVTSNGTVKLADFGLARIYSYQMALTPVVVTLWYRAPEVLLQSTYATPVDMWSV
4 | – | – | binds | – | – | Cdk4-Δ2-6×His (natural protein, UniProt P30285 1-303, looked up) MAATRYEPVAEIGVGAYGTVYKARDPHSGHFVALKSVRVPNGGAAGGGLPVSTVREVALLRRLEAFEHPNVVRLMDVCATSRTDRDIKVTLVFEHIDQDLGCIFAEMFRRKPLFCGNSEADQLGKIFDLIGLPPEDDWPREVSLPRGAFAPRGPRPVQSVVPEMEESGAQLLLEMLTFNPHKRISAFRALQHSYLHKEESDAE
